# B1: anti-KDR monoclonal antibody 30D7 (antibody, V domains shown)
# VH: QVPLVESGGGVVQPGRSLRLSCAASGFTFSSYGMHWVRQAPGKGLEWVAVIWYDGSNKYYADSVKGRFTISRDNSKNTLYLQMNSLRAEDTAVYYCARGVTMVRGVIIARYYYGLDVWGQGTTVTVSS
# VL: DIVMTQTPLSSPVTLGQPASISCRSSQSLVHSDGNTYLSWLQQRPGQPPRLLIYKISNRFFGVPDRFSGSGAGTDFTLKIGRVEAEDVGLYYCMQSTQFPLTFGGGTKVEIK
# notes: Fully human mAb from XenoMouse (IgG2 or IgG4 strain); hybridoma supernatant
# B2: 30F6 (antibody, V domains shown)
# VH: QVQLVESGGGVVQPGRSLRLSCAASGFTFSTYGMHWVRQAPGKGLEWVAVIWYDGSNKYYADSVKGRFTISRDNSKNTLYLQMNSLRAEDTAVYYCACSYWNDDYYYGMDVWGQGTTVTVSS
# VL: DIQMTQSPSSLSASVGDRVIITCRASQNISSYLIWYQQKPGKAPNLLIHTTSSLQRGVPSRFSGSGSGTDFTLTISSLQPEDFATYYCQQSYSAPLTFGGGTKVEIK
# notes: Fully human mAb from XenoMouse hybridoma, tested as hybridoma supernatant
# B3: anti-KDR monoclonal antibody 33D5 (antibody, V domains shown)
# VH: QVQLVQSGAEVKKPGASVKVSCKASGYTFGSYDINWVRQATGQGLEWMGWMNPNSGNTGYAQKFQGRVTLTRNTSIRTVYMELSSLRSEDTAVYYCARGGYSNLGWFDPWGQGSLVTVSS
# VL: DIQMTQSPSSVSVSVGDRVTITCRASQGISSWLAWYQQKPGKAPKLLIYAASSLQSGVPSRFSGSGSGTDFTLTISSLQPEDFATYYCQQANSFPFTFGPGTKVDIK
# notes: as for B1
# B4: 31E11 (antibody, V domains shown)
# VH: QVQLVESGGGLVKPGGSLRLSCAASGFTFSDYYMSWIRQAPGKGLEWVSYISISGSTIYYADSVKGRFTISRDNAKNSLYLQMNSLRAEDTAVYYCARDDFWSGYYFNWFDPWGQGTLVTVSS
# VL: DIQMTQSPSSLSASVGDRVTITCRANQTISTFLNWYQQNPGKAPKLLIYAASSLQSGVPSRFSGSGSGTDFTLTISSLQPEDFATYYCQQTYIIPLTFGGGTKVEIK
# notes: as for B2
# B5: 33C3 (antibody, V domains shown)
# VH: QVQLVESGGGLVKPGESLRLSCAASGFTFSDYYMSWIRQAPGKGLEWVSYISHGGSTIYYADSVKGRFTISRDNAKNSLYLQMNSLRVEDTAVYFCARDDFWSGYYFNWFDPWGQGALVTVSS
# VL: DIQMTQYPLSLSASVGDRVTITCRASQSISSFLNWYHQKPGKAPKLLIYGTSSLQSGVPSRFSGSGSGTDFTLTISSLQPEDFATYYCQQTYSIPLTFGGGTNVEIK
# notes: as for B2
# B6: 33E1 (antibody, V domains shown)
# VH: QVQLQESGPGLVKPSQTLSLTCTVSGGSISSGDHYWSWIRQHPGKGLEWIGHIYYSGSTDYNPSLKSRVTISVDTSKNHFSLKLNSVTAADTAVYYCARTNSSSWSDWYFDLWGRGTLVTVSS
# VL: DIVMTQSPDSLAVSLGERATINCKSSQSILYSSNNKNYLAWYQRKPGQPPILLIHWASTRESGVPDRFSGSGSRTDFTLTISSLQAEDVAVYYCQQYFITPWTFGQGTKVEIK
# notes: as for B2
# B7: anti-KDR monoclonal antibody 29A3 (antibody, V domains shown)
# VH: QVQLQESGPGLVKPSETLSLTCTVSGGSISSYFWSWIRQPAGKGLEWIGRIYFSGRTNYNPSLKSRVTMSVETSKNQFSLKLNSVTAADTAVYYCARDGGWNYDVAFDYWGQGTLVTVSS
# VL: QAVLTQPSSLSASPGASASLTCTLRSGINVGTYRIYWYQQKPGSPPQYLLRYKSDSDQLQGSGVPSRFSGSKDASANAGILLISGLQSEDEADYYCMVWHSNTWVFGGGTKLTVL
# notes: as for B1
# B8: 32C11 (antibody, V domains shown)
# VH: EVQLLESGGTLVQPGGSLRLSCAASGFTFSNYAMSWVRQAPGKGLEWVSAISGRAGSTYYADSVKGRFTISRDNSKNTLFLQMNSLRAEDTAVYYCAKASGDDWGQGTLVTVSS
# VL: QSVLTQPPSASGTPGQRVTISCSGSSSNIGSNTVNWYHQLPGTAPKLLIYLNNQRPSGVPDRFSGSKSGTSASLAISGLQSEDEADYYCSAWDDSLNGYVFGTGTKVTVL
# notes: as for B2
# Assays:
# [1] = biological target: T1, soluble KDR (VEGF Receptor 2 D1-7, Cat. #676490, Calbiochem) (human, UniProt P35968 20-764); assay: ELISA, plate-coated soluble KDR 250 ng/mL, hybridoma supernatant 1:5
# T1 construct: extracellular domain; Bought reagent; also called soluble human KDR; immobilized soluble KDR
# Protocol: To screen by binding to immobilized soluble KDR, plates were coated with KDR (Calbiochem) at 250 ng/mL overnight at 4° C. After blocking and washing the coated plates, the candidate hybridoma supernatants (at 1:5 dilution) were transferred to the plates and incubated for one hour at room temperature. The plates were then washed and incubated with secondary antibody (at 1:4000 dilution) for one hour at room temperature.
# [2] = biological target: T2, human KDR (VEGFR2) on cells (human, UniProt P35968 20-1356); assay: cell-based or functional assay
# [3] = biological target: T2, human KDR (VEGFR2) on cells; assay: cell-based or functional assay; remark: listed apart in the source
# [4] = biological target: T2, human KDR (VEGFR2) on cells; assay: cell-based or functional assay; remark: listed apart in the source
# [5] = biological target: T2, human KDR (VEGFR2) on cells; assay: FACS on HUVEC, hybridoma supernatant 1:50
# Protocol: HUVECs were seeded at 15,000 cells/well and incubated with 100 μL of sample supernatant (at 1:50 dilution) for one hour at 4° C. The positive control was goat anti-KDR antibody (R&D Systems, Inc.), and negative controls included irrelevant hybridoma supernatants at the same dilution. The cells were then washed and incubated with Cy5-conjugated goat anti-human antibody at 5 μg/mL and 7-Amino-Actinomycin D (7AAD) at 5 μg/mL for 15 minutes at 4° C. Bound KDR was detected using FACS analysis.
# [6] = biological target: T3, soluble KDR extracellular domain (ECD) (Calbiochem) (human, UniProt P35968 20-764); assay: High Antigen ELISA, KDR coat 500 ng/mL, supernatant 1:75
# T3 construct: extracellular domain; Bought protein; also called KDR-ECD; VEGF Receptor 2 D1-7, Cat. #676490
# [7] = biological target: T3, soluble KDR extracellular domain (ECD) …; assay: Limited Antigen ELISA, KDR coat 12.5 ng/mL, supernatant 1:25
# Protocol: (§1) Samples containing one concentration of antibody (Ab) (1:25 dilution) were incubated overnight to allow Ab binding to approach equilibrium. The low antigen concentration limited the effect of antibody concentration, allowing ranking of the antibodies based on their relative affinity.
# [8] = biological target: T3, soluble KDR extracellular domain (ECD) …; assay: High Antigen ELISA, KDR coat 500 ng/mL, supernatant 1:25
# [9] = biological target: T3, soluble KDR extracellular domain (ECD) …; assay: High Antigen ELISA, KDR coat 500 ng/mL, supernatant 1:6075
# [10] = biological target: T3, soluble KDR extracellular domain (ECD) …; assay: High Antigen ELISA, KDR coat 500 ng/mL, supernatant 1:675
# [11] = biological target: T3, soluble KDR extracellular domain (ECD) …; assay: High Antigen ELISA, KDR coat 500 ng/mL, supernatant 1:18,225
# [12] = biological target: T3, soluble KDR extracellular domain (ECD) …; assay: Limited Antigen ELISA, KDR coat 50 ng/mL, supernatant 1:25
# Protocol: as §1
# [13] = biological target: KDR endogenously expressed on human umbilical vein endothelial cells (HUVEC) (human, UniProt P35968 20-1356); assay: cell-based or functional assay
# [14] = biological target: T3, soluble KDR extracellular domain (ECD) …; assay: Limited Antigen ELISA, KDR coat 25 ng/mL, supernatant 1:25
# Protocol: as §1
# [15] = biological target: T3, soluble KDR extracellular domain (ECD) …; assay: High Antigen ELISA, KDR coat 500 ng/mL, supernatant 1:225
# [16] = biological target: T3, soluble KDR extracellular domain (ECD) …; assay: Limited Antigen ELISA, KDR coat 6.25 ng/mL, supernatant 1:25
# Protocol: as §1
# [17] = biological target: T3, soluble KDR extracellular domain (ECD) …; assay: High Antigen ELISA, KDR coat 500 ng/mL, supernatant 1:2025
# [18] = biological target: T3, soluble KDR extracellular domain (ECD) …; assay: Limited Antigen ELISA, KDR coat 3.125 ng/mL, supernatant 1:25
# Protocol: as §1
# KDR endogenously expressed on human umbilical vein endothelial cells (HUVEC), sequence (P35968 20-1356): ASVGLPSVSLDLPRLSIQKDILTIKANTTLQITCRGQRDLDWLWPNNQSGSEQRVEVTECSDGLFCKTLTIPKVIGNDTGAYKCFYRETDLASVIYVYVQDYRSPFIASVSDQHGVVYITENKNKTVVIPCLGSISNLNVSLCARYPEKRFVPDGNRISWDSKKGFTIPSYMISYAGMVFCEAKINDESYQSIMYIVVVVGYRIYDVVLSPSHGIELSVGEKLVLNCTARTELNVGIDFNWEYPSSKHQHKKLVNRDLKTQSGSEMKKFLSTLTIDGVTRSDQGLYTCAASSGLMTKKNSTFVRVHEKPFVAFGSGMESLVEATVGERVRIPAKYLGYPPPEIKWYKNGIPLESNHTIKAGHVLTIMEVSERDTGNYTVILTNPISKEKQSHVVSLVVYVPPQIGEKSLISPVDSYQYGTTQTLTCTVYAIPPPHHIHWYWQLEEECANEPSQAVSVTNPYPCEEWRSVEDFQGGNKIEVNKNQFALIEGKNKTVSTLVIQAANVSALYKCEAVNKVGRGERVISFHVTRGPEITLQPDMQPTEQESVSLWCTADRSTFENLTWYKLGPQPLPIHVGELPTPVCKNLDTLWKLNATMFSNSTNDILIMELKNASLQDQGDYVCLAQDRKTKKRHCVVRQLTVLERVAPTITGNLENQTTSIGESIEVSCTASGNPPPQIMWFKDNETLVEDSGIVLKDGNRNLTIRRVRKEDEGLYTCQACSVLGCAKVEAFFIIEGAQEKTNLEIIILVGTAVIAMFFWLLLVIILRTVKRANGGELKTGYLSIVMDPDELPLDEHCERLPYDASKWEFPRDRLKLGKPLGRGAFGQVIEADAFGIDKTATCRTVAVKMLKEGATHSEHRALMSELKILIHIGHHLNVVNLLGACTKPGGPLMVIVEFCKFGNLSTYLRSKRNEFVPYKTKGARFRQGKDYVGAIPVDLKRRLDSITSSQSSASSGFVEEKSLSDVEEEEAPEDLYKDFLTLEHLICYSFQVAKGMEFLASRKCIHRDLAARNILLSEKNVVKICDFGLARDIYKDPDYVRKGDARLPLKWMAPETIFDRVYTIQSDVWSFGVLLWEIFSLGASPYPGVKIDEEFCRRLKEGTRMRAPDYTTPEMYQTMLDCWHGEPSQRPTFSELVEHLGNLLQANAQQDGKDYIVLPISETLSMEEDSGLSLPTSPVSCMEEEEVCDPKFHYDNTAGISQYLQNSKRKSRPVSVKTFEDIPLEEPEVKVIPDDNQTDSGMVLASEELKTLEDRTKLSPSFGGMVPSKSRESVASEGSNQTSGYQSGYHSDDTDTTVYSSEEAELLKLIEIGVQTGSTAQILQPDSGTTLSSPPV
# T2 sequence (P35968 20-1356): as above
# T1 sequence (P35968 20-764): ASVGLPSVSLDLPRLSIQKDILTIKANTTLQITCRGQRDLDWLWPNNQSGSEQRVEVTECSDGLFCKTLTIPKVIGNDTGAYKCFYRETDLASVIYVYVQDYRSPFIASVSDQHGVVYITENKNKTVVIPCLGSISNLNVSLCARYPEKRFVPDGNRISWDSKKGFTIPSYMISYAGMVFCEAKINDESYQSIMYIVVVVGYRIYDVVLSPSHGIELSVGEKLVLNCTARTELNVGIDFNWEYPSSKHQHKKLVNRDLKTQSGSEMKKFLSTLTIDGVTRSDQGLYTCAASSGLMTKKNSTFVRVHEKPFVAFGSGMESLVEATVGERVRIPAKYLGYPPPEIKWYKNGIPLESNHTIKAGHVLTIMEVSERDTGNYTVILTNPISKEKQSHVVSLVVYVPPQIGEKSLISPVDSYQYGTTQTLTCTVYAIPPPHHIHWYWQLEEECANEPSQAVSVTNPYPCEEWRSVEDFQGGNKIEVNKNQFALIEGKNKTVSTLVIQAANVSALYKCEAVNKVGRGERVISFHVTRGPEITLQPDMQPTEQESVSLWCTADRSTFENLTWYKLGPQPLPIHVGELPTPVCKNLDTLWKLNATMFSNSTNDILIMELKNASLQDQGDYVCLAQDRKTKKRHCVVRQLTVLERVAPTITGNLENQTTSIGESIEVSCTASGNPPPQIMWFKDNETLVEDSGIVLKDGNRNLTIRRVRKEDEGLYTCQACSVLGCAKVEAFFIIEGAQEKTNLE
# T3 sequence (P35968 20-764): as above
binder,measurement,setting,value
B1,KDR OD(450 nm),[1],3.45 OD450
same,"% Inhibition of VEGF165-mediated pTyr Activity, Average",[2],76%
same,"% Inhibition of VEGF165-mediated pTyr Activity, n = 1",[2],99%
same,"% Inhibition of VEGF165-mediated pTyr Activity, n = 2",[2],71%
same,"% Inhibition of VEGF165-mediated pTyr Activity, n = 3",[2],59%
same,% Inhibition of VEGF-E-mediated pTyr Activity,[3],24%
same,HUVEC survival (n = 1) 1:10 dilution of supernatant (RLU),[4],28300 RLU
same,HUVEC survival (n = 2) 1:20 dilution of supernatant (RLU),[4],2520 RLU
same,FACS Geometric Mean,[5],31
B2,ELISA reading,[6],3.12
same,ELISA reading,[7],0.25
same,ELISA reading,[8],3.04
same,ELISA reading,[9],0.16
same,ELISA reading,[10],0.93
same,ELISA reading,[11],0.09
same,ELISA reading,[12],0.52
same,VEGF-E-mediated Survival % Inhibition (Average),[13],37%
same,VEGF-E-mediated Survival % Inhibition (n = 1),[13],31%
same,VEGF-E-mediated Survival % Inhibition (n = 2),[13],43%
same,ELISA reading,[14],0.31
same,ELISA reading,[15],2.42
same,ELISA reading,[16],0.13
same,ELISA reading,[17],0.35
same,ELISA reading,[18],0.1
B3,KDR OD(450 nm),[1],3.59 OD450
same,"% Inhibition of VEGF165-mediated pTyr Activity, Average",[2],77%
same,"% Inhibition of VEGF165-mediated pTyr Activity, n = 1",[2],95%
same,"% Inhibition of VEGF165-mediated pTyr Activity, n = 2",[2],72%
same,"% Inhibition of VEGF165-mediated pTyr Activity, n = 3",[2],63%
same,% Inhibition of VEGF-E-mediated pTyr Activity,[3],30%
same,HUVEC survival (n = 1) 1:10 dilution of supernatant (RLU),[4],43400 RLU
same,HUVEC survival (n = 2) 1:20 dilution of supernatant (RLU),[4],706 RLU
same,FACS Geometric Mean,[5],24
B4,ELISA reading,[6],6
same,ELISA reading,[7],0.68
same,ELISA reading,[8],4.48
same,ELISA reading,[9],0.62
same,ELISA reading,[10],3.6
same,ELISA reading,[11],0.31
same,ELISA reading,[12],2.37
same,VEGF-E-mediated Survival % Inhibition (Average),[13],55%
same,VEGF-E-mediated Survival % Inhibition (n = 1),[13],56%
same,VEGF-E-mediated Survival % Inhibition (n = 2),[13],54%
same,ELISA reading,[14],1.24
same,ELISA reading,[15],4.61
same,ELISA reading,[16],0.39
same,ELISA reading,[17],1.81
same,ELISA reading,[18],0.2
B5,ELISA reading,[6],4.96
same,ELISA reading,[7],0.72
same,ELISA reading,[8],4.96
same,ELISA reading,[9],0.31
same,ELISA reading,[10],2.55
same,ELISA reading,[11],0.18
same,ELISA reading,[12],3
same,VEGF-E-mediated Survival % Inhibition (Average),[13],74%
same,VEGF-E-mediated Survival % Inhibition (n = 1),[13],78%
same,VEGF-E-mediated Survival % Inhibition (n = 2),[13],69%
same,ELISA reading,[14],1.32
same,ELISA reading,[15],4.31
same,ELISA reading,[16],0.37
same,ELISA reading,[17],0.84
same,ELISA reading,[18],0.2
B6,ELISA reading,[6],4.24
same,ELISA reading,[7],0.15
same,ELISA reading,[8],4.06
same,ELISA reading,[9],0.98
same,ELISA reading,[10],3.51
same,ELISA reading,[11],0.49
same,ELISA reading,[12],0.85
same,VEGF-E-mediated Survival % Inhibition (Average),[13],60%
same,VEGF-E-mediated Survival % Inhibition (n = 1),[13],66%
same,VEGF-E-mediated Survival % Inhibition (n = 2),[13],54%
same,ELISA reading,[14],0.36
same,ELISA reading,[15],4.07
same,ELISA reading,[16],0.11
same,ELISA reading,[17],2.09
same,ELISA reading,[18],0.07
B7,KDR OD(450 nm),[1],0.814 OD450
same,"% Inhibition of VEGF165-mediated pTyr Activity, Average",[2],77%
same,"% Inhibition of VEGF165-mediated pTyr Activity, n = 1",[2],92%
same,"% Inhibition of VEGF165-mediated pTyr Activity, n = 2",[2],66%
same,"% Inhibition of VEGF165-mediated pTyr Activity, n = 3",[2],72%
same,% Inhibition of VEGF-E-mediated pTyr Activity,[3],22%
same,HUVEC survival (n = 1) 1:10 dilution of supernatant (RLU),[4],36400 RLU
same,HUVEC survival (n = 2) 1:20 dilution of supernatant (RLU),[4],2450 RLU
same,FACS Geometric Mean,[5],30
B8,ELISA reading,[6],6
same,ELISA reading,[7],0.69
same,ELISA reading,[8],4.36
same,ELISA reading,[9],0.27
same,ELISA reading,[10],2.02
same,ELISA reading,[11],0.14
same,ELISA reading,[12],2.48
same,VEGF-E-mediated Survival % Inhibition (Average),[13],6%
same,VEGF-E-mediated Survival % Inhibition (n = 1),[13],5%
same,VEGF-E-mediated Survival % Inhibition (n = 2),[13],7%
same,ELISA reading,[14],1.12
same,ELISA reading,[15],4.28
same,ELISA reading,[16],0.35
same,ELISA reading,[17],0.82
same,ELISA reading,[18],0.2

# — patent publication US20100260765A1 (AstraZeneca / MedImmune, published 2010)
